Changes are numbered by the printed parent chain. Read-outs that look alike come from different tables or passages of the source.
B1: CoV2-01 (antibody, V domains shown)
VH: QVLLVQSGAEMKKPGASVKVSCKTSGYTFTNSYIHWVRQAPGQGLEWMGWINPISGGTNYAQKFQGRVTMTRDTSINTAYMELSRLRSDDTAVYYCARDRGDYDYGWGTSPFYFDYWGQGTLVTVSS
VL: DVQMTQSPSSLSASVGDRVTITCRASQSISRYLNWYQQKPGKAPKLLIYAASSLQSGVPSRFSGSGSGADFTLTISSLQPEDFATYYCQQSFSPPITFGQGTRLEIK
B2: CoV2-11 (antibody, V domains shown)
VH: QVELVESGGGLVQPGRSLRLSCEASGFSFDNYAMHWVRQTPGKGLEWVSGITGNSGTIGYADSVKGRFTISRDNAKNSLYLQMNRLRAEDTALYYCAKDTDYDSSGSYFDYWGQGTLVTVSS
VL: QPVLTQPPSVAVAPGQTARITCGGKNIGRESVHWYQQKPDQAPVLVIYSDGDRPSGTSERFSGSRSGNAATLTISRVEAGDEADYFCQVWDPDTDHYVFGTGTELTVL
B3: CoV2-32 (antibody, V domains shown)
VH: EVQLVESGGGLVQPGRSLRLSCAAPRFTFDDYAIHWVRQVPGKGLEWVSGSSWNSGTIGYAPSVKGRFTISRDNAKNSLFLQMNSLRVEDTALYYCAILPGDYNRVADVFDIWGQGTMVIVSS
VL: QAVVTQPPSVSGAPGQRVTISCTGSSSNIGAGYDVHWYQQLPGTAPKLLIYGNNNRPSGVPDRFSGSKSGTSASLAITGLQVEDEADYYCQSYDSSLSGYVFGTGTKVTVL
B4: CoV2-31 (antibody, V domains shown)
VH: QVQLQQWGAGLLKPSETLSRTCAVYGGSFSGYSWTWIRQAPGKGLEWIGEINHGGSTNYNPSLESRVSISVDTSKKQFSLELRSVTAADTAVYYCARGYDTNWYGDGYNWFDPWGQGTLVTVSS
VL: QAVVTQPLSVSVALGQTAKIPCGGNNIGRKSVHWYQQKPGQAPVLVIYRDNNRPSGIPERFSGSNSGNTATLTISRAQAGDEADYYCQVWDSNTGVFGTGTKVTVL
B5: CoV2-35 (antibody, V domains shown)
VH: B4 VH with Q5H, N58K, S68T, T121S
VL: NFMLTQPASVSVAPGKTASITCGGDNIGTKSVHWYRQKPGQAPVLVIYYDSDRPSGIPERFSGSNSGNTATLTISRVEAGDEADYYCQVGDSSSHVVFGGGTKVTVL
B6: CoV2-34 (antibody, V domains shown)
VH: B4 VH with Q5H, I51V, S56K, V67L, K76N, T121S
VL: DIQMTQSPSSLSASVGDRVTITCRASQKIDNFLNWYQQKPGKAPKLLIHGASNLQGGVSSRFSGSRSGTDFTLTITNLQPEDFATYYCQQSYNTPITFGQGTRLEIK
B7: CoV2-20 (antibody, V domains shown)
VH: QVQLVESGGDLVQPGRSLRLSCAASGFIFDDYAMHWVRQVPGKGPEWVSGVNRDSTYVGQADSVKGRFTISRDNAKKALFLQMDSLRVEDTALYYCVRGMTRVATDAFDFWGQGTMVTVSS
VL: AIQMTQSPSSLSASVGDRVTITCRASQSINGYLNWYQQKPGKAPKLLIYSASRLQSGVPSRFSGSGSGADYTLTISNLQVEDFATYYCQQSYSTPPVTFGQGTRLEIK
B8: CoV2-33 (antibody, V domains shown)
VH: QVQLVESGGGLVQPGRSLRLSCAASRFTFDDHAMHWVRQAPGKGLEWVSGISWNGGIIGYADSVKGRFTISRDNAKNSLYLQMNSLRAEDTALYYCAKGMGFGESNYYAMDVWGQGTMVTVSS
VL: QSALTQPASVSGSPGQSITISCTGTSSDVGGYNYVSWYQQHPGKAPKLIIYDVSNRPSGVSNRFSGSKSGNTASLTISGLQAEDEAYYYCSSYTSISNLVVFGGGTKVTVL
B9: CoV2-18 (antibody, V domains shown)
VH: QVQLVQSGAEVKKPGSSVKVSCKASGGTFSNYGISWVRQAPGQGLEWMGGIIPIFGTANYAQKFQGRVTITADKSTRTAYMELSSLRFEDTAVYYCARDRDDALTGLGLGGGFDIWGQGTMVTVSS
VL: QAVVTQPPSASGTPGQRVTISCSGSTSNIGTNTANWYQHLPGTAPKLLIYGNDRRPSGVPDRFSGSKSVTSASLAISGLQSEDEADYYCAAWDERLNGYVFGTGTKLTVL
B10: CoV2-17 (antibody, V domains shown)
VH: QVELVESGGGLVKPGGSLRLSCAASGFTFSSYSMNWVRQAPGKGLEWVSSISSSSSYIYYADSVKGRFTISRDNAKNSLYLQMNSLRAEDTAVYYCARGNVDIVATGEVDAFDIWGQGTMVSVSS
VL: QAVVTQPPSASGTLGQRVTISCSGSSSTIGSNYVYWYQQLPGTAPKLLIYRNNQRPSGVPDRFSGSKSGTSASLAISGLRSEDEADYYCAAWDDSLSGYVFGTGTQLTVL
B11: CoV2-29 (antibody, V domains shown)
VH: QVQLVESGGGLVQPGGSLRLSCAASGFTFSSYWMSWVRQAPGKGLEWVANIKQDGSEKYYVDSVKGRFTISRDNAKNSLYLQMNSLRAEDTAVYYCARMADDDFWRDLPGFYMDVWGKGTTVTVSS
VL: QAVVTQPASVSGSPGQSITISCTGTSSDVGGYNYVSWYQQHPGKAPKLMIYDVSNRPSGVSNRFSGSKSGNTASLTISGLQAEDEADYYCSSYTSSSTLVFGGGTKVTVL

Experiments:
[1] = target: T1, sCoV2-RBD (Fc-tagged RBD of SARS-CoV-2 S protein) (SARS-CoV-2; human, UniProt P0DTC2 319-541); assay: ELISA titration on coated sCoV2-RBD
[2] = target: T2, SARS-CoV-2 RBD protein (Sino Biological, Cat: 40592-V08B) (SARS-CoV-2, UniProt P0DTC2 319-541)
[3] = target: T3, S protein of SARS-CoV (SARS-CoV, UniProt P59594 14-1195); assay: ELISA, purified IgG1 on coated S protein
[4] = target: T1, sCoV2-RBD (Fc-tagged RBD of SARS-CoV-2 …)
[5] = target: SARS-CoV-2 S protein on live SARS-CoV-2-mNG reporter virus (SARS-CoV-2, UniProt P0DTC2 14-1273); assay: cell-based or functional assay
[6] = target: T1, sCoV2-RBD (Fc-tagged RBD of SARS-CoV-2 …); assay: BLI (Octet) blocking of ACE2 binding to captured sCoV2-RBD
[7] = target: T4, sCoV-RBD (Fc-tagged RBD of SARS-CoV S protein) (SARS-CoV; human, UniProt P59594 306-527); assay: phage ELISA, scFv on phage
[8] = target: T2, SARS-CoV-2 RBD protein (Sino …); assay: BLI (Octet), mAb on Protein A sensor
[9] = target: T1, sCoV2-RBD (Fc-tagged RBD of SARS-CoV-2 …); assay: ELISA titration on coated sCoV2-RBD; remark: listed apart in the source
[10] = target: T4, sCoV-RBD (Fc-tagged RBD of SARS-CoV S …); assay: ELISA, purified IgG1 on coated RBD protein
[11] = target: T1, sCoV2-RBD (Fc-tagged RBD of SARS-CoV-2 …); assay: ELISA titration on coated sCoV2-RBD; remark: listed apart in the source
[12] = target: T3, S protein of SARS-CoV; assay: BLI (Octet), CoV2-20 against spike of SARS-CoV
[13] = target: T4, sCoV-RBD (Fc-tagged RBD of SARS-CoV S …); assay: ELISA titration on coated sCoV-RBD
[14] = target: T4, sCoV-RBD (Fc-tagged RBD of SARS-CoV S …); assay: BLI (Octet) blocking of ACE2 binding to sCoV-RBD
[15] = target: T2, SARS-CoV-2 RBD protein (Sino …); remark: listed apart in the source

Binder	EC50 [1]	binding result [3]	EC50 [4]	NC50 (neutralisation of reporter SARS-CoV-2, Vero E6 cells) [5]	IC50 [6]	Kd [8]	koff [8]	kon [8]	binding result [10]	other results
B1	0.83 nM	no binding (tested: one concentration, not printed)	0.83 nM	5.2 µg/mL	9.17 µg/mL	10.8 nM	0.000574 s⁻¹	53300 M⁻¹ s⁻¹		Kd [2]: 10.8 nM; binding result [7]: no binding
B2	0.6 nM				2.97 µg/mL	4.97 nM	0.000306 s⁻¹	61600 M⁻¹ s⁻¹		EC50 [9]: 0.59 nM
B3	12.6 nM	no binding (tested: one concentration, not printed)			10.4 µg/mL	1730 nM	0.00158 s⁻¹	915 M⁻¹ s⁻¹	no binding (tested: one concentration, not printed)	
B4	58.1 nM	no binding (tested: one concentration, not printed)							no binding (tested: one concentration, not printed)	
B5	40 nM	no binding (tested: one concentration, not printed)							no binding (tested: one concentration, not printed)	
B6	6.67 nM	no binding (tested: one concentration, not printed)							no binding (tested: one concentration, not printed)	
B7	22 nM				14.7 µg/mL	29.5 nM	0.000805 s⁻¹	27300 M⁻¹ s⁻¹		EC50 [11]: 5.99 nM; Kd [12]: 24.4 nM; koff [12]: 0.000676 s⁻¹; kon [12]: 27700 M⁻¹ s⁻¹; EC50 [13]: 9.96 nM; IC50 [14]: 44.6 µg/mL
B8	10.8 nM	no binding (tested: one concentration, not printed)			5.47 µg/mL	168 nM	0.00137 s⁻¹	8180 M⁻¹ s⁻¹	no binding (tested: one concentration, not printed)	
B9	2.41 nM	no binding (tested: one concentration, not printed)	2.41 nM	1.93 µg/mL	6.03 µg/mL					Kd [2]: 11.4 nM; Kd [15]: 11.4 nM; koff [15]: 0.000467 s⁻¹; kon [15]: 41200 M⁻¹ s⁻¹; binding result [7]: no binding
B10	2.24 nM	no binding (tested: one concentration, not printed)	2.31 nM	2.49 µg/mL	4.28 µg/mL	53.4 nM	0.00101 s⁻¹	18900 M⁻¹ s⁻¹		Kd [2]: 1.73 nM; Kd [15]: 1.73 nM; koff [15]: 5.78e-05 s⁻¹; kon [15]: 33300 M⁻¹ s⁻¹; binding result [7]: no binding
B11	4.05 nM	no binding (tested: one concentration, not printed)	4.04 nM	1.13 µg/mL	2.25 µg/mL				no binding (tested: one concentration, not printed)	
